System: immune cells
Assay: Inducing activity for interferon-γ in immune cells
Assay type: cell-based
Conditions: IL-12 (positive control) with 40 ng/mL
Experimental: The herbal extract (prepared by Example 1) was added in T lymphocytes and natural killer cells (NK92) separated from peripheral blood. After 24 hours, the upper-layered solution was collected and the quantity of interferon thereof was measured by ELISA. […] The dosage effect appears in both the T lymphocytes and natural killer cells (NK92). The quantity of interferon-α induced by PC-IL-12 (positive control) and the herbal extract was measured in the same manner. […] Additionally, the quantity of interferon-α produced by inducing T lymphocytes by the herbal extract with 250-1,000 μg/mL was obvious, as shown in FIGS. 2B and 2C.
The inducing activity for interferon-γ of the herbal extract (prepared by Example 3) was tested.

B1: IL-12: IL-12 (positive control) with 40 ng/mL (protein, UniProt P29459 23-219; P29460 23-328, looked up)
Interleukin-12 subunit alpha: RNLPVATPDPGMFPCLHHSQNLLRAVSNMLQKARQTLEFYPCTSEEIDHEDITKDKTSTVEACLPLELTKNESCLNSRETSFITNGSCLASRKTSFMMALCLSSIYEDLKMYQVEFKTMNAKLLMDPKRQIFLDQNMLAVIDELMQALNFNSETVPQKSSLEEPDFYKTKIKLCILLHAFRIRAVTIDRVMSYLNAS
Interleukin-12 subunit beta: IWELKKDVYVVELDWYPDAPGEMVVLTCDTPEEDGITWTLDQSSEVLGSGKTLTIQVKEFGDAGQYTCHKGGEVLSHSLLLLHKKEDGIWSTDILKDQKEPKNKTFLRCEAKNYSGRFTCWWLTTISTDLTFSVKSSRGSSDPQGVTCGAATLSAERVRGDNKEYEYSVECQEDSACPAAEESLPIEVMVDAVHKLKYENYTSSFFIRDIIKPDPPKNLQLKPLKNSRQVEVSWEYPDTWSTPHSYFSLTFCVQVQGKSKREKKDRVFTDKTSATVICRKNASISVRAQDRYYSSSWSEWASVPCS
Work on B1 yielded an interferon-γ produced of 50 ± 2.04 pg/mL.

From patent US20090280200A1, “HERBAL EXTRACTS WHICH INDUCE IMMUNE CELLS TO PRODUCE INTERFERON AND ACTIVATE TOLL-LIKE RECEPTORS” (INDUSTRIAL TECHNOLOGY RESEARCH INSTITUTE, priority 2008, published 2009)
